# According to the supplement of paper PMC12042874:
# ± gives the uncertainty stated by the source.
# Experiment: amyloid nucleation score (Sup35N fusion, yeast selection) (log enrichment); library NNK1; higher = more nucleation; inactive = no reads after selection
# In short: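 Output and input plasmid inserts were sequenced by Illumina after psi-negative yeast carrying Sup35N fused to peptides of 20 random codons had been induced 24 hours with 100 μM copper sulfate and grown 7 days at 30°C on medium lacking adenine and uracil. The nucleation score is the DiMSum log enrichment of output over input reads, centred on the mode score of non-aggregating sequences. Sequences with under 100 input reads were excluded.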
row,Substance,amyloid nucleation score
1,NKCIAKDGDMES,-0.015 ± 0.23
2,NKRVHWLSGRLWIWYHWWVI,-1.5 ± 1.7
3,NKSHAHLKVAMSLVCPFKSH,1.5 ± 0.44
4,NKSVNLEYGRWVNMVPGLM,inactive
5,NLCFLITNYINRLNFYNFVV,0.807 ± 0.93
6,NLCRIRIARLQHGGRSTMSF,1 ± 0.73
7,NLCYHWVRNIQNGQRFLCQL,inactive
8,NLGLDVCEYIVVTWLTNDWS,-0.258 ± 0.51
9,NLINVFTLKWFDITL,5.686 ± 0.053
10,NLLSALNMVVFHNLEFYVIF,2.58 ± 0.25
11,NLLWNTVIIFDFVRNLWTWS,0.813 ± 0.72
12,NLNSMAFV,0.662 ± 0.56
13,NLPLLFL,-0.069 ± 0.27
14,NLPSSKKVLPCFFLRSIYGC,0.9 ± 0.4
15,NLRYSFFFNSDNSRVWECS,0.682 ± 0.35
16,NLSALLHDHFMGPIDLKFLT,1.8 ± 0.52
17,NLSSSRSVVKNLTFQMWNTS,4.45 ± 0.063
18,NLTFGYVGHK,3.91 ± 0.087
19,NLTHARGVSSVQRGVMSRTG,-0.747 ± 0.6
20,NLTWAGTLY,-0.875 ± 1.5
21,NLVWSYFLLGTDSYITTYDW,0.314 ± 0.79
22,NMCNLSFLQ,0.104 ± 1.1

row,Substance,amyloid nucleation score
1,NMFTFLSKRR,-0.928 ± 0.4
2,NMHLTYETDRFARYVNSKFN,0.744 ± 0.46
3,NMHNQVAFISCSFILFDVIN,6.95 ± 0.07
4,NMIVKSATEAANSP,1.25 ± 0.56
5,NMLVRKAG,-0.036 ± 0.73
6,NMTFSMPSNINCPFLGLR,0.29 ± 0.47
7,NMVLRFQCLWFCFISIPF,3.16 ± 0.14
8,NMYKSMNQSTE,-0.705 ± 0.26
9,NNAHRSVVWRYLVCFSCDFG,6.454 ± 0.064
10,NNFSCMDHILSMVKLWDVFG,-0.847 ± 0.59
11,NNINWVKGKHR,-1.06 ± 2.4
12,NNLMFNYSGHMVSVKAHSSG,0.776 ± 0.43
13,NNQHDGYSIFILDRQPLRAM,0.488 ± 0.59
14,NNRCPCYSILWNRWRNKVA,inactive
15,NNSLKCCLFLMSNLKSSRVN,6.08 ± 0.066
16,NNVAGCLEFHRYQGMCGRSM,1.04 ± 0.36
17,NNYNYLYTYNMQNQKQFIFM,7.281 ± 0.066
18,NPCHKMFSRNPHLYMAAVKS,0.335 ± 0.96
19,NPFYKT,0.268 ± 0.37
20,NPHCVSLKTRIPFVGGSKCG,-0.748 ± 1.2
21,NPLMTTLATSDMWRNQFISG,1.38 ± 0.41
22,NPPWQCGVRHDHLWVTSYHS,-0.481 ± 0.32

row,Substance,amyloid nucleation score
1,NPSNKCLSEPWQDHLLGAWR,0.758 ± 0.67
2,NQCYYRAGLFRVDLFCLELA,inactive
3,NQVENTWCMSLRLFSYSHTL,7.548 ± 0.058
4,NRFYYKARCRQVGHCT,0.743 ± 0.46
5,NRKAPFNQA,-1.09 ± 1.4
6,NRKRFHGMNDASAAYFREVC,-1.33 ± 2.7
7,NRLGLGPVSSICGR,-0.339 ± 0.81
8,NRLKFSLV,-2.62 ± 2.7
9,NRLNTTDWYSI,-0.342 ± 0.74
10,NRLRNGPNDRVVRATAPKGF,0.259 ± 0.4
11,NRQSNSVVYNARQETFIRHL,3.39 ± 0.14
12,NRRCGGASSIRTGNRIWDDW,2.22 ± 0.23
13,NRRDDNQCVSWIGVKAKVLS,0.564 ± 0.43
14,NRSLKCICRRSVGRRSQNLR,0.57 ± 0.5
15,NRTIFVVRHTDFGYLA,0.661 ± 0.75
16,NRYMWDFSIAGVGVRLWINS,-0.896 ± 0.55
17,NSASYII,-0.048 ± 0.24
18,NSCTGSGGCSWEDKGNWCVK,0.183 ± 0.28
19,NSEKLPMHPRGHAGQAWVQS,0.153 ± 0.45
20,NSEMCWFFNMISSTLAHLLV,1.75 ± 0.31
21,NSFRAAHWSEMVPAELGRSV,-0.513 ± 0.41
22,NSFSDAYKIVYLHIYRSGGI,-0.448 ± 0.6

row,Substance,amyloid nucleation score
1,NSFVYQWFGYVSFKLFRCTV,0.316 ± 0.26
2,NSFWTLVFSGHPACWLTVFI,-0.75 ± 0.59
3,NSGNHDSCKFFGLLVRQMVG,0.529 ± 0.46
4,NSGRVNTLWFCLSDTMLVTS,inactive
5,NSGVVRLFPYFMYRTAWLKS,0.224 ± 0.41
6,NSHHKKGHVKRAVRLLHYPV,0.799 ± 0.84
7,NSINFFNMFVYWL,6.26 ± 0.056
8,NSLCEFSMKMFTYNSMGGFI,1.86 ± 0.26
9,NSLLGYLYSYVVFYREHIVI,-0.326 ± 1.2
10,NSMIVAHKLDCACPASAKDR,4.94 ± 0.053
11,NSNCELGKVHFAV,0.501 ± 0.35
12,NSRFKNFMSNTHVH,inactive
13,NSRWSIFFASMCDIRLWCVV,0.755 ± 0.84
14,NSVVRVIKRSWRTVVLLHDR,-0.621 ± 1.4
15,NSVWLLTNVLKFGTNVSRHR,2.57 ± 0.16
16,NSYWLRCILPM,-0.065 ± 0.3
17,NTCTMCGWICAFLRPVFCVV,0.745 ± 1.2
18,NTFYCCFLFFY,6.517 ± 0.044
19,NTGIS,-1.22 ± 1.4
